Assay [1] concerns the target T1, MET567 (human, UniProt P08581 25-567).
T1 construct: human MET receptor fragment MET567 comprising the N-terminal SEMA domain and the cysteine-rich/PSI domain; as I recall it spans residues 25-567 of MET; also called MET567 receptor fragment; MET567 fragment; source: CHO Lec 3.2.8.1 cells, purified as described in Gherardi et al (2003)
Briefly: SEC-SAXS; K1K1 in complex with MET567 injected on Superdex 200 PC 3.2/300 Increase on line with SAXS (ESRF BM29); 25 mM Tris (pH 7.4), 150 mM NaCl. The following applies: both partners purified. (In general: Size exclusion chromatography separates by hydrodynamic size, large species first.)

Assay [2] concerns the target T1, MET567. Briefly: SPR; Biacore T200; MET567 immobilised at low density (515 RU) by amine coupling on a CM5 chip; 25°C, PBST (PBS + 0.05% Tween 20), 30 ul/min, 300-s injections to equilibrium; apparent KD from the binding isotherm. The following applies: both partners purified. For orientation: Surface plasmon resonance follows binding to a sensor surface in real time, without labels.

From publication PMC9348577, “Dimerization of kringle 1 domain from hepatocyte growth factor/scatter factor provides a potent MET receptor agonist” (Life Science Alliance, 2022) come the findings set out here.

T1 sequence (P08581 25-567): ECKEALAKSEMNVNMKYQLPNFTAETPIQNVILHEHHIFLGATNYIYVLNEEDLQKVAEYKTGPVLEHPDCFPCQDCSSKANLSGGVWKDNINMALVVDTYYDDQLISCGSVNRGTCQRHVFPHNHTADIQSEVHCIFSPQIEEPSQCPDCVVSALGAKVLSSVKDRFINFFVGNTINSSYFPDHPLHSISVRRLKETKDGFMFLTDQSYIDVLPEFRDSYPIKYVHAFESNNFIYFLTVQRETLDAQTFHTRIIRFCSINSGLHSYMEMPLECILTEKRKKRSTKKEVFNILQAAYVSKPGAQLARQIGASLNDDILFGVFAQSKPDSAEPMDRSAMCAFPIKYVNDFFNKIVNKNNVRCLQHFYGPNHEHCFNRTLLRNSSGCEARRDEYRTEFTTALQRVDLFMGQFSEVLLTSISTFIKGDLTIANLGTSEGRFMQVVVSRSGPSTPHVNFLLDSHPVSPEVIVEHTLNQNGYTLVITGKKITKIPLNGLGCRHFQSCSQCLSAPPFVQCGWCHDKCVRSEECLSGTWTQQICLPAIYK

B1: K1K1 (ligand)
chain: AIRNCIIGKGRSYKGTVSITKSGIKCQPWSSMIPHEHSFLPSSYRGKDLQENYCRNPRGEEGGPWCFTSNPEVRYEVCDIPQCSEVECIIGKGRSYKGTVSITKSGIKCQPWSSMIPHEHSFLPSSYRGKDLQENYCRNPRGEEGGPWCFTSNPEVRYEVCDIPQCSEVE
modifications: Intra-kringle disulphides (three per kringle). The initiator Met of the MAIRN construct is absent from the 7OCL entity, so paper numbering = entity number + 1. Layout: (M)AIRN + HGF 128-206 + SEVE + …
On to B1, for which the “stoichiometry N” value in the assay with MET567 [1] is 1. Moreover, the Kd with MET567 [2] is 205 nM.

B2: NK1 (natural protein, human, UniProt P14210 28-209, looked up)
chain: YAEGQRKRRNTIHEFKKSAKTTLIKIDPALKIKTKKVNTADQCANRCTRNKGLPFTCKAFVFDKARKQCLWFPFNSMSSGVKKEFGHEFDLYENKDYIRNCIIGKGRSYKGTVSITKSGIKCQPWSSMIPHEHSFLPSSYRGKDLQENYCRNPRGEEGGPWCFTSNPEVRYEVCDIPQCSEV
notes: human NK1, splice variant of HGF/SF with the N-domain and the first kringle domain (K1), residues 28-209; also called recombinant human NK1 protein; wild-type NK1; source: Pichia pastoris, purified as described in Chirgadze et al (1999)
Regarding B2, the Kd with MET567 [2] was 200 nM.

What is called stoichiometry N is a count of units in the complex or per binding partner.
